Experimental data from publication PMC9523724.

Molecular target: commercial orange peel PME (pectin methylesterase, Sigma p5400) (orange (peel))

relative activity of MePMEI1 (loss of PME activity with MePMEI1 against the initial PME activity) at pH 4.5, 5.5, 6.5, 7.5 and 8.5; highest at pH 5.5, falling with rising pH: 31%
Substance: recombinant MePMEI1 protein (pectin methylesterase inhibitor 1 of Manihot esculenta) (natural protein)
